The target of test [1] is T1, recombinant his-tagged homotrimeric SARS-CoV-2 spike protein (SARS-CoV-2, UniProt P0DTC2 16-1211). The test is described as follows: flow cytometry, blocking of binding to hACE-2 cells.
Test [2] addresses T2, SARS-CoV spike RBD (R306-F527), C-terminal 6-His (SARS-CoV, UniProt P59594 306-527). Described as above.
Test [3] addresses T3, recombinant monomeric SARS-CoV-1 S1 protein (SARS-CoV-1, UniProt P59594 14-667). The test is described as above.
For test [4], the target named is T4, BSA (bovine, UniProt P02769).
T4 construct: also called bovine serum albumin
T4 sequence (P02769 25-607 limits assumed): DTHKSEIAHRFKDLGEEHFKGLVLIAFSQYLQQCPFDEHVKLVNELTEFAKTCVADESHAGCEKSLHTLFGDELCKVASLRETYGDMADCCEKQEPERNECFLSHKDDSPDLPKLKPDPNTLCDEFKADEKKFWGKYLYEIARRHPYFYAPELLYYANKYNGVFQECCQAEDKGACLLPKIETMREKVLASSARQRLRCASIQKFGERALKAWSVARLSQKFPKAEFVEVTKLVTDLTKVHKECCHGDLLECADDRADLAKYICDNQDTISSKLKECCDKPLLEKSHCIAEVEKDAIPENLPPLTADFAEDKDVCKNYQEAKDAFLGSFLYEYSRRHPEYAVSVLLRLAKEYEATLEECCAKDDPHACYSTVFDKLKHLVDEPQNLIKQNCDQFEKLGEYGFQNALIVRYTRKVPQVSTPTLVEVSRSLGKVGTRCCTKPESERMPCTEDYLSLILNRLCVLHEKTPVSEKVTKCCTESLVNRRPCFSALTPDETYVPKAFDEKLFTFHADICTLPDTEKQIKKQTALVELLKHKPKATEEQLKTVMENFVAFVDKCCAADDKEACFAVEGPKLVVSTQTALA
The test is described as follows: dipstick, adsorbed protein spots, Ab 10 µg/mL, GAM-AuNP.

Test [5] has as its target T2, SARS-CoV spike RBD (R306-F527), …. The test can be described thus: antigen-down ELISA, coated SARS-CoV-1 S1 RBD titrated, Ab 1 µg/mL. In general terms: An ELISA detects its analyte on a solid surface through an enzyme-linked reagent.
The target is the same in test [6]. The test is described as follows: flow cytometry, blocking of binding to hACE-2 cells. This is another data set of the same source.
Test [7] deals with T1, recombinant his-tagged homotrimeric …. The description is as above. This is another data set of the same source.
Test [8] concerns the target T5, recombinant monomeric SARS-CoV-2 S1 protein, his-tagged (SARS-CoV-2, UniProt P0DTC2 16-681).
T5 construct: domain: S1
The description is as above.

The target in test [9] is T3, recombinant monomeric SARS-CoV-1 S1 …. The test is described as above. This is another data set of the same source.
The target is the same in test [10]. The test is described as follows: antigen-down ELISA, coated SARS-CoV-1 S1 titrated, Ab 1 µg/mL.
The target of test [11] is T5, recombinant monomeric SARS-CoV-2 S1 …. The test is described as follows: flow cytometry, blocking of binding to hACE-2 cells. The source holds these as a separate data set.
For test [12], the target named is T3, recombinant monomeric SARS-CoV-1 S1 …. The test is described as follows: antigen-down ELISA, coated SARS-CoV-1 S1 titrated, Ab 1 µg/mL. This is another data set of the same source.
For test [13], the target named is T2, SARS-CoV spike RBD (R306-F527), …. The test can be described thus: antigen-down ELISA, coated SARS-CoV-1 S1 RBD titrated, Ab 1 µg/mL. The source holds these as a separate data set.
Test [14] shares this target. Described as above. This is another data set of the same source.
Test [15] deals with T3, recombinant monomeric SARS-CoV-1 S1 …. The test is described as follows: antigen-down ELISA, coated SARS-CoV-1 S1 titrated, Ab 1 µg/mL. This is another data set of the same source.
The target in test [16] is T4, BSA. The test is described as follows: dipstick, adsorbed protein spots, Ab 10 µg/mL, GAM-AuNP. This is another data set of the same source.
Test [17] has as its target T2, SARS-CoV spike RBD (R306-F527), …. The test can be described thus: antigen-down ELISA, coated SARS-CoV-1 S1 RBD titrated, Ab 1 µg/mL. The source holds these as a separate data set.
For test [18], the target named is T3, recombinant monomeric SARS-CoV-1 S1 …. The test can be described thus: antigen-down ELISA, coated SARS-CoV-1 S1 titrated, Ab 1 µg/mL. This is another data set of the same source.
Test [19] shares this target. The description is as above. The source holds these as a separate data set.
Test [20] addresses T2, SARS-CoV spike RBD (R306-F527), …. The test is described as follows: antigen-down ELISA, coated SARS-CoV-1 S1 RBD titrated, Ab 1 µg/mL. The source holds these as a separate data set.
For test [21] the target is unchanged. The test can be described thus: lateral flow NC50, RBD-AuNP vs immobilised ACE2.
The target in test [22] is T4, BSA. The test can be described thus: dipstick, adsorbed protein spots, Ab 10 µg/mL, GAM-AuNP. This is another data set of the same source.

This is an account of results in US20230408517A1 (BIO TECHNE, published 2023).

Read-outs that look alike come from different tables or passages of the source.

B1: 1035753 (antibody, V domains shown)
VH: EVQLQQSGAELVRPGALVKLSCKASGFNIKDYYMHWVKQRPEQGLEWIGWIDPENGNTIYDPKFLGKASITADTSSNTAYLQLSSLTSEDTAVYYCARWYYYAMDSWGQGTSVTVSS
VL: DIQMTQTTSSLSASLGDRVTISCSASQGISNYLNWYQQKPDGTVKLLIYYTSSLHSGVPSRFSGSGSGTDYSLTISNLEPEDIATYYCQQYSKLPFTFGGGTNLEMK
On to B1, for which the percent blocking in test [1] was 96.6%; in [2], 0%; in test [3], 0%; in test [6], 0%; in test [7], 96.6%; in test [8] it was 94%. In addition, the percent blocking in test [9] came to 0%; in [11], 94%. Also, the results for the binding result in test [4], in [5] and in test [10] were “no binding (tested: 10 µg/mL)”, “no binding (tested: 400 ng coated (axis))” and “no binding (tested: 400 ng coated (axis))”, respectively.

B2: 1035752 (antibody, V domains shown)
VH: QVQLQQPGAELVRPGASVKMSCKASGYTFTSHSIHWVKQTPGQGLEWIGAVYPGNGDTSYYQKFKGKATLTADKSSSTAYMHLSSLTSEDSAVYYCARDGYSDYYAMDCWGQGTSVTVSS
VL: DIVMTQSQKFMSTSVGDRVSVTCKASQNVGTNVAWYQQKPGQSPKALIYSASYRYSGVPDRFTGSGSGTDFTLTINNVQSEDLAEYFCQQYNRYPWTFGGGTKLEIK
With B2, the binding result in test [12] and in test [13] was “no binding (tested: 400 ng coated (axis))” each time. Besides, the percent blocking in test [1] turned out to be 91.8%; in [2], 0%; in test [3], 0%; in test [6] it was 0%; in test [7] it was 91.8%; in [8], 93.3%. In addition, the percent blocking in [9] was found to be 0%; in [11] it was 93.3%.

B3: 1035755 (antibody, V domains shown)
VH: EVQLQQSGAELVRPGALVKLSCKASGFNIKDYYMHWVKQRPEQGLEWIGWIDPENGNSIYDPKFQGKASITADTSSNTAYLQLSSLTSEDTAVYYCATPSATSYFDYWGQGTTLTVSS
VL: QIVLTQSPAIMSASPGEKVTISCSASSSVSYMYWYQQKPGSSPKPWIYRTSNLASGVPARFSGSGSGTSYSLTISSMEAEDAATYYCQQYHSYPYMYTFGGGTKLEIK
Consider B3, for which the percent blocking is 84.6% in test [1]; 0% in [2]; 1.3% in [3]; 0% in [6]; 84.6% in test [7]; 93.3% in test [8]. Moreover, the percent blocking in [9] amounted to 1.3%; in test [11], 93.3%. In addition, the binding result in test [14] and in test [15] was “no binding (tested: 400 ng coated (axis))” in each case.

B4: 1035709 (antibody, V domains shown)
VH: EVQLQQSGPELVKPGASVKISCKTSGYTFTEYTMHWVKQSHGKSLEWIGGINPNIVDTGYNQKFKGKATLTVDKSSSTAYMELRSLTSEDSAVYYCARDGYPLYYAMDYWGQGTSVTVSS
VL: DIQMTQSPSSLSASLGERVSLTCRASQEISGYLSWLQQKPDGTIKRLIYAASTLDSGVPKRFSGSRSGSDYSLTISSLESEDFADYYCLQYASYPWTFGGGTKLEIK
As to B4, the percent blocking is 96.5% in [1]; 0% in test [2]; 0% in [3]; 0% in [6]; 96.5% in test [7]; 93.6% in [8]. Moreover, the percent blocking in test [9] came to 0%; in test [11], 93.6%. Also, the binding result is “no binding (tested: 10 µg/mL)” in [16], “no binding (tested: 400 ng coated (axis))” in test [17] and “no binding (tested: 400 ng coated (axis))” in test [18].

B5: 1035211 (antibody, V domains shown)
VH: QVQLQQSGAELARPGASVKMSCKASGYTFTNYTMHWVKQRPGQGLEWIGYINPSSGYTNYNQKFKDKATLTADKSSSTAYMQLSSLTSEDSAVYYCARRNPLYAMDYWGQGTSVTVSS
VL: DIKMTQSPSSMYASLGERVTITCKASQDINSYLNWFQQKPGKSPKTLIYRANRLVDGVPSRFSGSGSGQDYSLTISSLEFEDMGIYYCLQYDEFPYTFGGGTKLEIK
Regarding B5, the percent blocking in [1] worked out at 78.6%; in [2], 0.1%; in test [3], 0%; in test [6], 0.1%; in [7], 78.6%; in test [8] it was 88.7%. Besides, the percent blocking in test [9] was found to be 0%; in test [11] it was 88.7%. For the same molecule, the binding result in test [19] and in [20] was “no binding (tested: 400 ng coated (axis))” throughout.

B6: 1035740 (antibody, V domains shown)
VH: EVLLQQSGPELVKPGASVKIPCKASGYTFTDYNMDWVKQSHGKSLEWIGDINPNNGFTIYNQKFKGKATLTVDKSSSTAYMELRSLTSEDTAVYYCAREGYGNYFDYWGQGTTLTVSS
VL: DVLLTQSPAILSVSPGERVSFSCRASQSIGTSLHWYQQRTNGSPRLLIKYVSESISGIPSRFSGSGSGTDFTLSINSVESEDIADYYCQQSSSWPTTFGAGTKLELK
With B6, the percent blocking in test [1] was found to be 96.5%; in test [2], 98.8%; in test [3], 92.4%; in test [6], 98.8%; in test [7] it was 96.5%; in test [8], 93.4%. For the same molecule, the percent blocking in test [9] was determined as 92.4%; in [11] it was 93.4%. This molecule registered a 50% inhibitory concentration (IC50) in test [21] of 0.84 µg/mL. Besides, the binding result in test [22] is listed as “no binding (tested: 10 µg/mL)”.

As a reminder, the IC50 is the concentration that gives 50% inhibition. Lower therefore signals greater potency.
